From PMC6886522

Key:
[1] = test system: NC(=O)c1ncn([C@@H]2O[C@H](COP(=O)(O)O)[C@@H](O)[C@H]2O)c1N=CN[C@@H]1O[C@H](COP(=O)(O)O)[C@@H](O)[C@H]1O; assay: purified protein
[2] = test system: O=C(O)c1ccccc1N[C@@H]1O[C@H](COP(=O)(O)O)[C@@H](O)[C@H]1O; assay: purified protein
[3] = substrate: O=C(O)c1ccccc1N[C@@H]1O[C@H](COP(=O)(O)O)[C@@H](O)[C@H]1O; assay: PRA isomerase steady-state kinetics; type: biochemical, Jonesia denitrificans
[4] = substrate: O=C(O)c1ccccc1N[C@@H]1O[C@H](COP(=O)(O)O)[C@@H](O)[C@H]1O; assay: PRA isomerase steady-state kinetics; type: biochemical, Streptomyces sviceus
[5] = substrate: NC(=O)c1ncn([C@@H]2O[C@H](COP(=O)(O)O)[C@@H](O)[C@H]2O)c1N=CN[C@@H]1O[C@H](COP(=O)(O)O)[C@@H](O)[C@H]1O; assay: ProFAR isomerase steady-state kinetics; type: biochemical, Streptomyces sviceus
[6] = substrate: O=C(O)c1ccccc1N[C@@H]1O[C@H](COP(=O)(O)O)[C@@H](O)[C@H]1O; assay: PRA isomerase steady-state kinetics; type: biochemical, Streptomyces sp. C
[7] = substrate: NC(=O)c1ncn([C@@H]2O[C@H](COP(=O)(O)O)[C@@H](O)[C@H]2O)c1N=CN[C@@H]1O[C@H](COP(=O)(O)O)[C@@H](O)[C@H]1O; assay: ProFAR isomerase steady-state kinetics; type: biochemical, Streptomyces sp. C
[8] = substrate: O=C(O)c1ccccc1N[C@@H]1O[C@H](COP(=O)(O)O)[C@@H](O)[C@H]1O; assay: PRA isomerase steady-state kinetics; type: biochemical, Streptomyces ipomoeae
[9] = substrate: NC(=O)c1ncn([C@@H]2O[C@H](COP(=O)(O)O)[C@@H](O)[C@H]2O)c1N=CN[C@@H]1O[C@H](COP(=O)(O)O)[C@@H](O)[C@H]1O; assay: ProFAR isomerase steady-state kinetics; type: biochemical, Streptomyces ipomoeae
[10] = substrate: NC(=O)c1ncn([C@@H]2O[C@H](COP(=O)(O)O)[C@@H](O)[C@H]2O)c1N=CN[C@@H]1O[C@H](COP(=O)(O)O)[C@@H](O)[C@H]1O; assay: ProFAR isomerase steady-state kinetics; type: biochemical, Mycolicibacterium smegmatis; conditions: pH 7.5
[11] = substrate: O=C(O)c1ccccc1N[C@@H]1O[C@H](COP(=O)(O)O)[C@@H](O)[C@H]1O; assay: PRA isomerase steady-state kinetics; type: biochemical, Mycolicibacterium smegmatis; conditions: pH 7.5
[12] = substrate: O=C(O)c1ccccc1N[C@@H]1O[C@H](COP(=O)(O)O)[C@@H](O)[C@H]1O; assay: PRA isomerase steady-state kinetics; type: biochemical, Streptomyces globisporus
[13] = substrate: NC(=O)c1ncn([C@@H]2O[C@H](COP(=O)(O)O)[C@@H](O)[C@H]2O)c1N=CN[C@@H]1O[C@H](COP(=O)(O)O)[C@@H](O)[C@H]1O; assay: ProFAR isomerase steady-state kinetics; type: biochemical, Streptomyces globisporus

With PriB_SMg1 (Streptomyces sp.) the Km [1] was 13.2 ± 3.4 µM, the kcat [1] was 0.92 ± 0.19 s⁻¹ and the kcat/Km [1] was 69000 M⁻¹ s⁻¹. For the same molecule, the Km [2] was 129.6 ± 34 µM, the kcat [2] was 0.29 ± 0.04 s⁻¹ and the kcat/Km [2] was 2200 M⁻¹ s⁻¹.

B1: TrpF-3_Jden (Jonesia denitrificans DSM 20603) (protein)
chain: MYIKVCGLTDPHAIDAAQAAHVDAIGFVHAPTSPRHLTPPHISTLTATVDCTIDTVLVVATTPIADALALAESTGVSVLQLHGQYSDDDVAYAAARFPRVWRATSLSASPNLTVGAYGEELLLLDAPQAGSGHTWDFAALAHRRPTGRWLLAGGLTPDNVADAITTTSPWGVDVSSGVESAPGVKDPAKIAAFVQAARGVSCPR
Molecule B1 has a Km [3] of 16.8 ± 3.3 µM, a kcat [3] of 27 ± 1.6 s⁻¹ and a kcat/Km [3] of 1.6e+06 M⁻¹ s⁻¹.

B2: TrpF-3_Ssvi (Streptomyces sviceus ATCC 29083) (protein)
chain: MTLFVKICGLRTEQDVDTAVEAGADAIGFVFSDSPRRIDPAAAARLAARIPESVLTVGVFRREPLEYVRSVAAESGIGAVQLHGPEDRAYYDELSGGGWTLIRAAAFGDRVPRCGELGEDMLLLDAPVPGSGIAWDWSRKQVAGAGEKWLLAGGLTPENVREAVDVTRPWGVDVSSGVEASRGVKNPALITAFVEAARAGAVTSG
Molecule B2 has a Km [4] of 9.4 ± 0.47 µM, a kcat [4] of 0.82 ± 0.08 s⁻¹ and a kcat/Km [4] of 88000 M⁻¹ s⁻¹.

B3: PriB_Ssvi (Streptomyces sviceus ATCC 29083) (protein)
chain: MPSKLSRLELLPAVDVRDGQAVRLVHGESGTETSYGSPLEAALSWQRAGAEWLHLVDLDAAFGTGDNRELVRQVTEAMDIKVELSGGIRDDASLAAALATGCTRVNLGTAALESPEWVAKVIAEHGDRIAVGLDVRGTTLKGRGWTSEGGDLYEALERLDKEGCARYVVTDIAKDGTLQGPNLELLRNVCAATDRPVVASGGVSSLDDLRAIAELVPLGVEGSIVGKALYAKAFTLEEALEAVAQ
For B3, the Km [5] was 3.9 ± 0.89 µM, the kcat [5] was 0.69 ± 0.04 s⁻¹ and the kcat/Km [5] was 180000 M⁻¹ s⁻¹. It also gave a Km [4] of 24.5 ± 4.0 µM, a kcat [4] of 1.6 ± 0.29 s⁻¹ and a kcat/Km [4] of 67000 M⁻¹ s⁻¹.

B4: PriB_SspC (Streptomyces sp. C) (protein)
chain: MPNTLELLPAVDVRDGQAVRLVHGVSGSETSYGSPLEAALAWQASGAEWLHLVDLDAAFGTGDNRALVADITRAMDIKVELSGGIRDDATLAAALATGCTRVNLGTAALETPEWAAKAIAEHGDRIAIGLDVRGTTLKGRGWTSEGGDLYETLARLDSEGCARYVVTDIGKDGTLTGPNLELLKNVCAATDRPVVASGGVSSLDDLRALSELVPLGVEGAIVGKALYAKAFTLEEALEAVRA
B4 was tested, and the Km [6] was 149.9 ± 29 µM, the kcat [6] was 1.4 ± 0.12 s⁻¹ and the kcat/Km [6] was 9000 M⁻¹ s⁻¹. For the same molecule, the Km [7] was 11.4 ± 3.4 µM, the kcat [7] was 2.53 ± 0.74 s⁻¹ and the kcat/Km [7] was 220000 M⁻¹ s⁻¹.

B5: TrpF-3_Sipo (Streptomyces ipomoeae 91-03) (protein)
chain: MSVSNSNDSLFIKICGLRTERDVDTAVEAGADAVGFVFSASPRQIDADTAARLCDRVPEHVLTVGVFRDEPLRDVRSFATDSGIRAVQLHGPEDRAYYDDLAKGDWTLIRAAAFGDTVPRCGEFGEDMLLIDAPVPGSGIAWDWSSKPLAGSGERWILAGGLSPENVRDAVAATQPWGVDVSSGVELSRGVKDPALITEFVKAVRGGC
B5 was tested, and the Km [8] was 23.0 ± 1.3 µM, the kcat [8] was 4.3 ± 0.35 s⁻¹ and the kcat/Km [8] was 190000 M⁻¹ s⁻¹.

B6: PriB_Sipo (Streptomyces ipomoeae 91-03) (protein)
chain: MAKLELLPAVDVRDGQAVRLVHGESGTETSYGSPLEAALAWQRAGAEWLHLVDLDAAFGTGDNRDLVAEVTRAMDIKVELSGGIRDDASLAKALATGCTRVNLGTAALETPEWVAKVIAEHGDKIAVGLDVKGTTLRGRGWTRDGGDLYETLERLDKEGCARYVVTDIAKDGTLQGPNLELLRNVCAATDRPVVASGGVSSLDDLRAIAELVPLGVEGAIVGKALYAKAFTLEEALEATS
In the case of B6, the Km [9] is reported as 3.8 ± 0.2 µM, the kcat [9] is reported as 0.82 ± 0.02 s⁻¹ and the kcat/Km [9] is reported as 210000 M⁻¹ s⁻¹. The Km [8] was 60.8 ± 1.1 µM, the kcat [8] was 8.25 ± 0.4 s⁻¹ and the kcat/Km [8] was 140000 M⁻¹ s⁻¹.

B7: PriA_Msme (Mycolicibacterium smegmatis MC2 155) (protein)
chain: MATGATEAAGAGKRGLILLPAVDVVNGQAVRLVQGKAGSETDYGSAIEAAEAWQRDGAEWIHLVDLDAAFGRGSNRELLAEVVGKLDVAVELSGGIRDDESLRAALDTGCARVNIGTAALENPQWCARAIAEHGDRVAVGLDAQTDGAGGFRLRGRGWETDGGDLWEVLDRLDSEGCSRYVVTDVSKDGTLTGPNLDLLAAVAGRTDAPVIASGGVSSLDDLRAIATLTGVGVEGAIVGKALYAGRFTLPQALSAVSG
B7 was tested, and the Km [10] was 2.6 ± 0.5 µM, the kcat [10] was 0.85 ± 0.04 s⁻¹ and the kcat/Km [10] was 330000 M⁻¹ s⁻¹. The Km [11] was 7.9 ± 2.4 µM, the kcat [11] was 3.1 ± 0.43 s⁻¹ and the kcat/Km [11] was 390000 M⁻¹ s⁻¹.

B8: PriA_Sglo (Streptomyces globisporus) (protein)
chain: MPKLELLPAVDVRDGQAVRLVHGESGSETSYGSPLEAALAWQSAGAEWLHLVDLDAAFGTGDNRALIAEVAGAMDIKVELSGGIRDDASLEAALATGCRRVNLGTAALETPEWVAKVIAEHGDKIAVGLDVRGTTLRGRGWTRDGGDLYETLARLDAEGCARYVVTDIAKDGTLEGPNLGLLRDVCAVTDRPVVASGGVSSLDDLRAISLLVPEGVEGAIVGKALYAKAFTLEEALKAVAA
Molecule B8 has a Km [12] of 11 ± 1.0 µM, a kcat [12] of 3.8 ± 0.2 s⁻¹ and a kcat/Km [12] of 340000 M⁻¹ s⁻¹. The Km [13] was 4.2 ± 0.8 µM, the kcat [13] was 0.74 ± 0.03 s⁻¹ and the kcat/Km [13] was 180000 M⁻¹ s⁻¹.
